Laboratory results taken from the RNAGym collection of RNA variant scans (doi:10.7554/elife.80360).

B1: CPEB3 Ribozyme (parent)
chain: GGGGGCCACAGCAGAAGCGUUCACGUCGCGGCCCCUGUCAGAUUCUGGUGAAUCUGCGAAUUCUGCUGU

Variants of: B1
Assay: self-cleavage, relative activity (ratio to wild type); higher = more cleavage; co-transcriptional

Variant | self-cleavage
C24A G30U | 0.159
C24A G30A | 0.217
C24A G48U | 0.737
C24A G48C | 0.786
C24A G48A | 0.758
C24A C33A | 0.38
C24A C33U | 0.761
C24A C33G | 0.33
C24A C32U | 0.729
C24A C32A | 0.31
C24A G31C | 0.132
C24A G31U | 0.257
A23U G56U | 0.955
A23U G56C | 0.936
A23U G56A | 1.01
C24A A60C | 0.283
C24A A60U | 0.252
C24A A60G | 0.35
C24U C57G | 0.24
C24U C57U | 0.244
A23U A52G | 0.642
A23U A52C | 1.04
A23U A52U | 0.996
C24G U44A | 0.514

Variant | self-cleavage
C24G U44C | 0.348
C24U A59C | 0.281
C24U A59G | 0.866
C24A G41C | 0.299
C24A G41A | 0.391
C24A G41U | 0.456
A23U G48A | 0.984
A23U G48U | 1.01
A23U U46C | 0.964
A23U U46A | 0.955
A23U U46G | 1
C24A C35G | 0.173
C24G C45A | 0.485
C24G C45U | 0.464
C24G C45G | 0.436
A23U G31U | 0.842
A23U G31C | 0.215
C24U G25A | 0.212
C24U G25C | 0.105
C24A U61C | 0.374
A23U C29U | 0.437
A23U C29A | 0.8
A23U C29G | 0.569
A23U A51U | 0.995

Variant | self-cleavage
A23U A51C | 0.995
C24G C33U | 0.38
C24G U49C | 0.523
C24A U43A | 0.537
C24A U43G | 0.427
C24G U36C | 0.171
C24G U36A | 0.118
C24G U36G | 0.146
C24A U53C | 0.603
C24A U53G | 0.506
C24A U53A | 0.537
A23U U43A | 0.954
A23U U43C | 0.931
C24G A59U | 0.225
C24G A59C | 0.141
C24G A59G | 0.518
C24G G68U | 0.699
C24G G68A | 0.725
C24G G48U | 0.528
C24G U61C | 0.284
C24G U61G | 0.306
C24G U61A | 0.173
C24G U43C | 0.309
C24G U43A | 0.348

Variant | self-cleavage
A23U A60C | 0.385
A23U A60G | 0.642
A23U A60U | 0.66
C24G U62G | 0.203
C24G U62A | 0.27
A23U C27G | 0.164
A23U C27U | 0.29
A23U C27A | 0.734
C24U A52C | 0.791
A23U U69A | 1.03
A23U U69C | 1.07
C24A C39G | 0.682
C24A C39U | 0.493
C24A C39A | 0.349
C24A U38G | 0.196
C24A U38C | 0.517
C24A U38A | 0.393
C24U A40G | 0.738
C24U A40U | 0.317
C24G U67A | 0.368
C24A U46A | 0.793
C24A U46C | 0.754
C24A U46G | 0.816
C24A G47A | 0.771

Variant | self-cleavage
C24G U69C | 0.739
A23U G47U | 0.983
A23U G47A | 1.02
A23U A40C | 0.678
A23U A40U | 0.924
A23U A40G | 0.951
C24G C35G | 0.116
C24G C35U | 0.261
C24U C63G | 0.328
C24U C32A | 0.414
C24U C32G | 0.211
C24A A52G | 0.772
C24A U62A | 0.364
C24A U62C | 0.402
C24G G56A | 0.22
C24G G56U | 0.299
C24A U44A | 0.705
C24A U44G | 0.615
C24A U44C | 0.628
C24G C32G | 0.239
C24G C32U | 0.435
C24U C66G | 0.346
C24U C66A | 0.331
C24U C66U | 0.734

Variant | self-cleavage
A23U U61A | 0.918
A23U U61G | 0.881
C24G U46A | 0.452
C24G U46C | 0.505
C24G U46G | 0.471
C24A | 0.77
C24G | 0.499
C24U | 0.844
C24G G37C | 0.219
C24G G37A | 0.131
C24U A60C | 0.254
C24G G28A | 0.14
A23U G28C | 0.217
A23U G28U | 0.148
C24G G47A | 0.491
C24G G47U | 0.508
A23U U49A | 1.03
A23U U49C | 0.981
A23U U49G | 0.936
A23U C24A | 0.888
C24G G25C | 0.152
C24G G25A | 0.22
C24A U64A | 0.492
C24U C33A | 0.465

Variant | self-cleavage
C24U C33U | 0.856
C24U C33G | 0.294
C24A C63U | 0.699
C24A C63A | 0.357
C24A G37A | 0.229
C24A G37C | 0.264
C24G C54A | 0.267
C24G C54G | 0.351
C24G A40G | 0.363
C24G A40C | 0.198
C24A A42G | 0.53
C24A C54U | 0.854
C24A A40G | 0.591
C24A A40C | 0.31
C24G G30A | 0.308
C24G G30U | 0.173
C24G G30C | 0.128
C24A U26G | 0.283
C24A U26A | 0.257
C24G G65A | 0.26
C24A A51G | 0.754
C24A A51C | 0.68
C24G A52G | 0.527
